In patent publication US20240301067A1 (WUXI BIOLOGICS IRELAND, published 2024):

Key:
[1] = target: T1, Cynomolgus monkey PD-1 on transiently transfected 293F cells (cynomolgus monkey); experiment: FACS on cyno PD-1 transfected 293F cells, experiment 1
T1 construct: whole, on cells; also called cell surface cynomolgus PD-1; cyno PD-1
Description: (§1) Cynomolgus monkey PD-1 (GenBank Accession No. NP_001271065.1) transient transfected 293F cells (2×10⁵ cells/well) were incubated with various concentrations of anti-PD-1 antibodies (3-fold serially diluted from 133.4 nM to 0.008 nM) at 4° C. for 1 hour. After washing with 1×PBS/1% BSA, the secondary antibody PE-labeled goat anti-human IgG was applied and incubated with cells at 4° C. for 1 hour. Anti-human PD-1 antibodies BMK1 and BMK3 were used as positive control. Human IgG4 isotype antibody was used as negative control. The cells were then washed and re-suspended in 1×PBS/1% BSA. MFI of the cells was measured by a flow cytometer and analyzed by FlowJo (version 7.6.1).

[2] = target: T2, Cynomolgus PD-1 extracellular domain, hFc tag (cynomolgus, UniProt B0LAJ3 25-170); experiment: ELISA competition on coated cynoPro1.ECD.hFc; competitor cynoProL1.ECD.hFc.biotin 2.5 µg/mL; experiment 1
T2 construct: Bought; also called cynoPro1.ECD.hFc; cyno PD-1 ECD protein
Description: (§2) Plates were pre-coated with 1 μg/mL, 100 μL per well of cyno PD-1 ECD protein (cynoPro1.ECD.hFc) at 4° C. overnight. After 1-hour blocking using 200 μL of 1×PBS/2% BSA, constant concentration of biotinylated cyno PD-L1 (cynoProL1.ECD.hFc.biotin) (2.5 μg/mL) and various concentrations of testing antibody, positive and negative control (3-fold serially diluted from 133.4 nM to 0.007 nM) were pre-mixed and added to the plates. The plates were incubated at ambient temperature for 1 hour. The binding of ligand to the immobilized protein was detected by streptavidin-HRP. The color was developed by dispensing 100 μL of TMB substrate, and then stopped by 100 μL of 2M HCl. The absorbance was read at 450 nm and 540 nm using a microplate spectrophotometer.

[3] = target: T3, Human BTLA extracellular domain, His (human, UniProt Q7Z6A9 31-157); experiment: ELISA, coated antigen 1 ug/mL, antibody 100 nM, HRP goat anti-human IgG
T3 construct: extracellular domain; Bought; also called hBTLA.ECD.His; not shown: His tag
T3 sequence (looked up): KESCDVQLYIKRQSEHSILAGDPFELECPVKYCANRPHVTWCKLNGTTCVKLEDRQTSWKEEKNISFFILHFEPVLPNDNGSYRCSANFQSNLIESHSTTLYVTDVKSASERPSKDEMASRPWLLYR
Description: Plates were pre-coated with 1 μg/mL, 100 μL per well of hPD-1.ECD.mFc, hCD28.ECD.mFc, hCTLA-4.ECD.His, hICOS.ECD.mFc or hBTLA.ECD.His at 4° C. overnight. After 1-hour blocking using 200 μL of 1×PBS/2% BSA, testing antibodies were added to the plates at a concentration of 100 nM. The plates were incubated at ambient temperature for 1 hour. The binding of the antibodies to the immobilized proteins was detected by HRP-labeled goat anti-human IgG antibody. The color was developed by dispensing 100 μL of TMB substrate, and then stopped by 100 μL of 2N HCl. The absorbance was read at 450 nm and 540 nm using a microplate spectrophotometer.

[4] = target: T4, Human PD-1 on CHO-S cells (human, UniProt Q15116 25-288); experiment: FACS competition with biotinylated BMK3 (1 ug/mL) on CHO-S.hPro1.C6 cells, SA-PE
T4 construct: whole, on cells; also called CHO-S.hPro1.C6; WBP305.CHO-S.hPro1.C6
Description: The human PD-1 transfected cells CHO-S.hPro1.C6 were transferred into 96-well U-bottom plates at a density of 1˜2×10⁵ cells/well. Serial dilutions of testing antibodies (4-fold serially diluted from 133.3 nM to 0.008 nM) were mixed with constant concentration of biotinylated BMK1 (1 μg/mL) or biotinylated BMK3 (1 μg/mL), respectively. Then the mixture was added to the cells in 96-well plates and incubated at 4° C. for 1 hour. After washing with 1×PBS/1% BSA, the secondary antibody SA-PE was applied and incubated with cells at 4° C. for 1 hour. The cells were then washed and resuspended in 1×PBS/1% BSA. MFI of the cells was measured by a flow cytometer and analyzed by FlowJo. Data were shown FIG. 9.

[5] = target: T4, Human PD-1 on CHO-S cells; experiment: FACS on CHO-S.hPro1.C6 cells, antibody kept 0 to 14 days in human serum at 37 C, PE goat anti-human IgG
Description: The human PD-1 transfected cell line WBP305-CHO-S.hPro1.C6 cells (1×10⁵ cells/well) were incubated with various concentrations of serum treated W3056 anti-PD-1 antibodies (3-fold serially diluted from 129.9 nM to 0.0007 nM) at 4° C. for 1 hour. After washing with 1×PBS/1% BSA, the secondary antibody PE-labeled goat anti-human IgG was applied and incubated with cells at 4° C. for 1 hour. Human IgG4 isotype antibody was used as negative control. The cells were then washed and resuspended in 1×PBS/1% BSA. MFI of the cells was measured by a flow cytometer (BD) and analyzed by FlowJo.

[6] = target: T2, Cynomolgus PD-1 extracellular domain, …; experiment: ELISA competition on coated cynoPro1.ECD.hFc; competitor cynoProL1.ECD.hFc.biotin 2.5 µg/mL; experiment 2
Description: as §2

[7] = target: T1, Cynomolgus monkey PD-1 on transiently …; experiment: FACS on cyno PD-1 transfected 293F cells, experiment 2
Description: as §1

T2 sequence (B0LAJ3 entry or part of it limits assumed): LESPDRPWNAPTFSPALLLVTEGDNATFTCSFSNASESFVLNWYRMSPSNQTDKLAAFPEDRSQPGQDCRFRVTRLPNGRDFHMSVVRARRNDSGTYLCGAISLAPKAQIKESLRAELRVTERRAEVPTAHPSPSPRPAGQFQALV
T4 sequence (Q15116 25-288): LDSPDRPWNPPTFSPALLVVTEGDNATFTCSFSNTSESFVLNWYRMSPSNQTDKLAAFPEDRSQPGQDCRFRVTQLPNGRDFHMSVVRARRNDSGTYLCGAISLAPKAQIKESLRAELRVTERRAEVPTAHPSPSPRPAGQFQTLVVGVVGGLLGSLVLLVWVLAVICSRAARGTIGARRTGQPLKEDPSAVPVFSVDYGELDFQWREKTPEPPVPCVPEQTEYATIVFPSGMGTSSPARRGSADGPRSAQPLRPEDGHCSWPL

B1: W3056-AP17R1-2H2-FC(IgG4.SP) (Fc fusion)
chain: QVQLVESGGGLVQPGGSLRLSCAASDSIDSLVNMGWYRQAPGKQRELVALIANYITHYADFVKGRFTISRDAAKNTVNLQMSSLKPEDTAVYYCYARNIIVDYWGQGTQVTVSS
notes: VHH fused to Fc of human IgG4 S228P; also called W3056 lead parental antibody (VHH-Fc(hIgG4) fusion); not shown: Fc of human IgG4 (hIgG4.S228P)
[1]
  EC50: 0.98 nM
[2]
  IC50: 1.3 nM
[3]
  binding result: no binding (tested: 100 nM)

B2: W3056-AP17R1-2H2-Z1-R1-14A1-FC(IgG4.SP) (Fc fusion)
chain: QVQLVESGGGVVQPGGSLRLSCAASDSIDSLVNMGWYRQAPGKQRELVALIATYITHYADFVKGRFTISRDNSKNTLYLQMNSLRAEDTAVYYCYARNIIVDYWGQGTLVTVSS
notes: also called W3056 lead antibody (VHH-Fc(hIgG4) fusion); not shown: Fc of human IgG4 (hIgG4.S228P)
[4]
  IC50 (read off the curve): ~20 nM
[5]
  EC50 (read off the curve): 1 to 2 nM
[6]
  IC50: 0.853 nM
[3]
  binding result: no binding (tested: 100 nM)
[7]
  EC50: 1.98 nM
